The supplement of paper PMC9170038

Legend:
MS2 coat protein [1] = assay: apparent KD of MS2 coat protein, switch ON state; designed switch direction (-1 OFF switch, 1 ON switch): -1; higher = weaker reporter binding; conditions: FMN input: 0 or 200 uM; Eterna round: R93 (includes R88 designs)
Procedure, shortened: (§1)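 In 100 mM Tris-HCl pH 7.5 with 80 mM KCl and 4 mM MgCl2, and without or with constant ligand, SNAP-549-labelled MS2 coat protein was titrated in twofold steps from 0.7 or 1.5 nM to 3 µM. Per-step times went from 0.8–1.5 h down to 10–20 min. The RNA switches were transcribed on-chip from Illumina sequencing clusters, and apparent KD is the per-design median of normalised cluster binding-curve fits.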

MS2 coat protein [2] = assay: apparent KD of MS2 coat protein, switch OFF state (with FMN for OFF switches, without FMN for ON switches); designed switch direction (-1 OFF switch, 1 ON switch): -1; higher = weaker reporter binding; conditions: FMN input: 0 or 200 uM; Eterna round: R93 (includes R88 designs)
Procedure, shortened: as §1

MS2 coat protein [3] = assay: apparent KD of MS2 coat protein; designed switch direction (-1 OFF switch, 1 ON switch): 1; higher = weaker reporter binding
Procedure, shortened: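 Designed RNA switches sharing common flanks were transcribed on Illumina chips by stalled E. coli RNA polymerase. They were titrated with SNAP-549-labelled MS2 coat protein, from 0.7 or 1.5 nM doubling to 3 µM, in Tris-HCl pH 7.5 buffer with KCl, MgCl2, BSA, DTT, tRNA and Tween-20. Titrations ran without input, with 200 uM small-molecule ligand, or with an oligonucleotide input. The apparent KD of each design is the median over its clusters, after curve-fitting of normalised cluster fluorescence.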

[4] = input ligand: microRNA oligo, concentration not stated
[5] = Eterna round: R95, input ligand: microRNA oligo, concentration not stated

Sequence | apparent KD of MS2 coat protein (MS2 coat protein [1]) | apparent KD of MS2 coat protein (MS2 coat protein [2]) | further results
AAAAAAAAAGGAUAUACAGGAGGUAAGGUCGGACAAAAAAGACAUGAGGAUCACCCAUGUAGAAGGUUUAAAAA [Excls2-X] | 39.4 nM | 35.1 nM | –
AAAAAACAAGGAUAUACAAAAAUAAAAAGAAUAAAGUGAAAACAUGAGGAUCACCCAUGUAGAAGGUGUAAAAA [Default title] | 67 nM | 44.8 nM | –
AAAAAACAUGAGGAUCACCCAUGUAAGGAUAUGCUAAAAAACACGGAAAACGUGAAUAGCAGAAGGUACAAAAG [Mat - Exclusion 1 - Eli mod - D84] | 15.9 nM | 67.7 nM | –
AAAAAACAUGAGGAUCACCCAUGUAAGGAUAUGCUCGUAAGUGCGAAAGCACAAAUGAGCAGAAGGUACAAAAA [66%, Wbt, 44] | 19.2 nM | 31 nM | –
AAAAAACAUGAGGAUCACCCAUGUAAGGAUAUGCUCGUGCGAAAGCACAAAAAAAAGAGCAGAAGGUACAAAAA [66%, Wbt, 38] | 19.8 nM | 32.3 nM | –
AAAAAACAUGAGGAUCACCCAUGUCAGGAUAUCCGGUUCAAAAAAAAAAAAAGGCGUUGGAGAAGGGACAUUCC [Chica Displaced 10 - Jieux - Exclusion 1] | 28 nM | 36.4 nM | –
AAAAAACAUGAGGAUCACCCAUGUCAGGAUAUCGUUGAAAAAAAAAAAAAAAAAAAAGCGAGAAGGGACACGAA [exclusion1-cac3] | 60.7 nM | 41.8 nM | –
AAAAAACAUGAGGAUCACCCAUGUCAGGAUAUCUGUAUUCAAUCCUCGGAUUGAAUACAGAGAAGGGAUAUGAA [Ex1: 604] | 42.2 nM | 62.2 nM | –
AAAAAACAUGAGGAUCACCCAUGUGAGGAUAUCGAAAAAAAAAUAAAAAUAAAACAUACGAGAAGGCACACCAA [Amethyst 59] | 30.5 nM | 35.7 nM | –
AAAAAACAUGAGGAUCACCCAUGUGAGGAUAUCGGUAGUGAGGCUAUAGUGUCAGUAAUGAGAAGGCACAUAAA [Brourd 613 Mod 11 - Jieux - Exclusion 1] | 24.6 nM | 29.7 nM | –
AAAAAACAUGAGGAUCACCCAUGUGAGGAUAUGAACGAAAAUAAAUAAAAAUAAAAGUUCAGAAGGCACAAAAA [66%, Wbt, 10] | 42.2 nM | 47.9 nM | –
AAAAAACAUGAGGAUCACCCAUGUGAGGAUAUGCGAAACAAAAAAAACAAAAACAAAAGCAGAAGGCACAAAAA [Amethyst 33] | 25 nM | 25.7 nM | –
AAAAAACAUGAGGAUCACCCAUGUGAGGAUAUGUACGAAAAUAAAUAAAAAUAAAAGUACAGAAGGCACAAAAA [66%, Wbt, 2] | 35.7 nM | 41.2 nM | –
AAAAAACAUGAGGAUCACCCAUGUGAGGAUAUGUACGAAAUAAAUAAAAAAUAAAAGUACAGAAGGCACAAAAA [Mat - Exclusion 1 - Eli mod - D5] | 35.5 nM | 32.4 nM | –
AAAAAACAUGAGGAUCACCCAUGUUAGGAUAUGCUAUGGAAAAUAAAAAUAAAACAUAGCAGAAGGAACAAAAA [Denovo 2] | 18.6 nM | 36.9 nM | –
AAAAAAGGAGGAUAUACGAACAUGUCGAAAGACGUGAAGGGACAUGAGGAUCACCCAUGUAGAAGGUCUAAAAA [Mat - Exclusion 2 - JL mod - D87] | 30.7 nM | 29.9 nM | –
AAAAAAGGAGGAUAUACGAACAUGUCGAAAGACGUGAAGGGACAUGAGGAUCACCCAUGUAGAAGGUUUAAAAA [Mat - Exclusion 2 - JL mod - D85] | 35.9 nM | 19.2 nM | –

Sequence | apparent KD of MS2 coat protein (MS2 coat protein [1]) | apparent KD of MS2 coat protein (MS2 coat protein [2]) | further results
AAAAAAGGAGGAUAUACGUACAUGUCGAAAGACGUGAAGGGACAUGAGGAUCACCCAUGUAGAAGGCUUAAAAA [Mat - Exclusion 2 - JL mod - D70] | 37.2 nM | 22.9 nM | –
AAAAACCUAGGAUAUACAUGAGGAUCACCCAUGUAAAGAAACAACAAGGGAAACACACGUAGAAGGAGGAAGAA [JR_Exc003_Sub1204] | 24.5 nM | 74.8 nM | –
AAAAAGAGAGGAUAUACAUGAGGAUCACCCAUGUGAAAGACGAAAAAAAGUCUAAAAAGUAGAAGGCUCAAAAA [65%, Moding Exclusion3-cac2, 12] | 17.1 nM | 22.5 nM | –
UUGCGGGCUUGAGGAUAUUGAGUACAUAUGUUUAACAUGAGGAUCACCCAUGUGGGUUGCGGUGUCGAGAAGGUGGCUUCCUGC [salish99_SSNG2_r04_814] (Eterna round: R96, puzzle: Same State NG 2) | – | – | apparent KD of MS2 coat protein (MS2 coat protein [3]; input ligand: FMN 200 uM): 99.2 nM; apparent KD of MS2 coat protein (MS2 coat protein [3]; [4]): 76.7 nM; apparent KD of MS2 coat protein (MS2 coat protein [3]; input ligand: none): 91.5 nM
UUGGUUGUCGUAGGAUAUGUAGGAUAUGCCUACAUGAGGAUCACCCAUGUUCGCAUGGCAGAAGGACAGAAGGACGAUGACCAU [pwkr ssNG2 2FMN + 1F5.19] (Eterna round: R96, puzzle: Same State NG 2) | – | – | apparent KD of MS2 coat protein (MS2 coat protein [3]; input ligand: FMN 200 uM): 13 nM; apparent KD of MS2 coat protein (MS2 coat protein [3]; [4]): 20.5 nM; apparent KD of MS2 coat protein (MS2 coat protein [3]; input ligand: none): 50.2 nM
UUGUGUUUGCGAGGAUAUCGUUUGUUGAAGUUACGAGAAGGCGCUCUCUUUACAUGAGGAUCACCCAUGUCUUUGAUGCAUGAU [JR_SSNG1_Sub072] (Eterna round: R96, puzzle: Same State NG 1) | – | – | apparent KD of MS2 coat protein (MS2 coat protein [3]; input ligand: FMN 200 uM): 81.1 nM; apparent KD of MS2 coat protein (MS2 coat protein [3]; [4]): 53.5 nM; apparent KD of MS2 coat protein (MS2 coat protein [3]; input ligand: none): 75.1 nM
UUGUUACAUGAGGAUCACCCAUGUUGUUGUAGAUAAGGAUAUAUAGGAACGAGAGAAAUAAUAGAAGGUAUUAGAC [JR_SS1_Sub059] (puzzle: Same State 1) | – | – | apparent KD of MS2 coat protein (MS2 coat protein [3]; [5]): 28.6 nM
UUGUUUGGUAAAAUACAUGAGGAUCACCCAUGUUAUGGUGCAGAGGAUAUGCAUGUUUGAUUGUAGCAGAAGGCUGUUUGUUGU [JR_SSNG3_Sub035] (Eterna round: R96, puzzle: Same State NG 3) | – | – | apparent KD of MS2 coat protein (MS2 coat protein [3]; input ligand: FMN 200 uM): 41.5 nM; apparent KD of MS2 coat protein (MS2 coat protein [3]; [4]): 29.7 nM; apparent KD of MS2 coat protein (MS2 coat protein [3]; input ligand: none): 42.5 nM
UUUAGUUGCGGGCAGGAUAUGUAUUAAAAUACAUGAGGAUCACCCAUGUGAGGCCGAAAAGGCCUACAGAAGGGCCAAUCGCGAC [Laonerce - 22] (puzzle: Same State 2) | – | – | apparent KD of MS2 coat protein (MS2 coat protein [3]; Eterna round: R95, input ligand: FMN 200 uM): 19.7 nM; apparent KD of MS2 coat protein (MS2 coat protein [3]; [5]): 49.4 nM; apparent KD of MS2 coat protein (MS2 coat protein [3]; Eterna round: R95, input ligand: none): 63 nM
UUUAUACAUGAGGAUCACCCAUGUCAACAAAGUCGAGGAUAUGGGCAUAUUAUCUUAUUUCCAGAAGGCGAAUUCU [salish99_ss1_r3_090] (Eterna round: R96, puzzle: Same State 1) | – | – | apparent KD of MS2 coat protein (MS2 coat protein [3]; input ligand: FMN 200 uM): 101 nM; apparent KD of MS2 coat protein (MS2 coat protein [3]; [4]): 305 nM; apparent KD of MS2 coat protein (MS2 coat protein [3]; input ligand: none): 378 nM
UUUAUACAUGAGGAUCACCCAUGUCAACAAAGUCGAGGAUAUGGGCAUAUUAUCUUAUUUCCAGAAGGCGAAUUCU [salish99_ss1_r3_090] (puzzle: Same State 1) | – | – | apparent KD of MS2 coat protein (MS2 coat protein [3]; [5]): 158 nM
UUUCCAUAGAUAGGAUAUCAGUUUACAUGAGGAUCACCCAUGUUCUCUUUGGUUAUAAUUAUAUCUGAGAAGGAUCUUGAUGAA [JR_SSNG2_Sub002] (Eterna round: R96, puzzle: Same State NG 2) | – | – | apparent KD of MS2 coat protein (MS2 coat protein [3]; [4]): 20.4 nM
UUUCGGUGGCUGGAGGAUAUCCUGGUUGUUACAUGAGGAUCACCCAUGUGCCGCGCGGUGCGCUGGGAGAAGGCCGGCGGCCCUU (puzzle: Same State 2) | – | – | apparent KD of MS2 coat protein (MS2 coat protein [3]; [5]): 25.2 nM
UUUGGGUGGCUGGAGGAUAUCCUGGUUGUUACAUGAGGAUCACCCAUGUGCCGCGCGGUUCGCGAGGAGAAGGCUGGCGGCCGUU (Eterna round: R96, puzzle: Same State 2) | – | – | apparent KD of MS2 coat protein (MS2 coat protein [3]; input ligand: FMN 200 uM): 42.4 nM; apparent KD of MS2 coat protein (MS2 coat protein [3]; [4]): 74.4 nM; apparent KD of MS2 coat protein (MS2 coat protein [3]; input ligand: none): 154 nM
UUUGGGUGGCUGGAGGAUAUCCUGGUUGUUACAUGAGGAUCACCCAUGUGCCGCGCGGUUCGCGAGGAGAAGGCUGGCGGCCGUU (puzzle: Same State 2) | – | – | apparent KD of MS2 coat protein (MS2 coat protein [3]; [5]): 91.2 nM
UUUGGGUGGCUGGAGGAUAUUCGAGUGGUUACAUGAGGAUCACCCAUGUGUCGCGCGGUACGCGAGGAGAAGGCUGGCGGCCGUU (puzzle: Same State 2) | – | – | apparent KD of MS2 coat protein (MS2 coat protein [3]; [5]): 53.4 nM
UUUUUGAUCCGAGGAUAUCCUUUUUUCUUACAUGAGGAUCACCCAUGUAAAGGGAUUGAGUUGUAGGAGAAGGCGGUUUUUUUU [JR_SSNG2_Sub060] (Eterna round: R96, puzzle: Same State NG 2) | – | – | apparent KD of MS2 coat protein (MS2 coat protein [3]; input ligand: FMN 200 uM): 17.5 nM; apparent KD of MS2 coat protein (MS2 coat protein [3]; [4]): 32.4 nM; apparent KD of MS2 coat protein (MS2 coat protein [3]; input ligand: none): 32.3 nM
